In PMC10397247:

Legend:
4H745-AA = biological target: T1, 4H745-AA; assay: two-hybrid library CCmax; conditions: mean of both orientations;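 note: natural log of median RNA to DNA barcode read ratio; higher means stronger binding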
T1 chain: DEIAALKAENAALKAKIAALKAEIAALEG

4H3410-AA = biological target: T2, 4H3410-AA; assay: two-hybrid library CCmax; conditions: mean of both orientations;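 note: natural log of median RNA to DNA barcode read ratio; higher means stronger binding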
T2 chain: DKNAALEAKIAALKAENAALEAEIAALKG

4H629-AA = biological target: T3, 4H629-AA; assay: two-hybrid library CCmax; conditions: mean of both orientations;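 note: natural log of median RNA to DNA barcode read ratio; higher means stronger binding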
T3 chain: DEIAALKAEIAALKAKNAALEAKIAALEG

4H3016-AA = biological target: T4, 4H3016-AA; assay: two-hybrid library CCmax; conditions: mean of both orientations;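 note: natural log of median RNA to DNA barcode read ratio; higher means stronger binding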
T4 chain: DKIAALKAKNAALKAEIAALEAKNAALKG

4H2865-AA = biological target: T5, 4H2865-AA; assay: two-hybrid library CCmax; conditions: mean of both orientations;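 note: natural log of median RNA to DNA barcode read ratio; higher means stronger binding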
T5 chain: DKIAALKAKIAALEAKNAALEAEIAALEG

4H310-AA = biological target: T6, 4H310-AA; assay: two-hybrid library CCmax; conditions: mean of both orientations;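 note: natural log of median RNA to DNA barcode read ratio; higher means stronger binding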
T6 chain: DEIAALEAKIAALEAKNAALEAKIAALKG

4H3381-AA = biological target: T7, 4H3381-AA; assay: two-hybrid library CCmax; conditions: mean of both orientations
T7 chain: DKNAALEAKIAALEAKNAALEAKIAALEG

4H3865-AA = biological target: T8, 4H3865-AA; assay: two-hybrid library CCmax; conditions: mean of both orientations
T8 chain: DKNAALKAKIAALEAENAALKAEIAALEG

4H797-AA = biological target: T9, 4H797-AA; assay: two-hybrid library CCmax; conditions: mean of both orientations
T9 chain: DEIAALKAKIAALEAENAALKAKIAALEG

4H909-AA = biological target: T10, 4H909-AA; assay: two-hybrid library CCmax; conditions: mean of both orientations
T10 chain: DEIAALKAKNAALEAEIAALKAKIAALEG

4H94-AA = biological target: T11, 4H94-AA; assay: two-hybrid library CCmax; conditions: mean of both orientations
T11 chain: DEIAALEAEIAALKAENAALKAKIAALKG

4H2649-AA = biological target: T12, 4H2649-AA; assay: two-hybrid library CCmax; conditions: mean of both orientations
T12 chain: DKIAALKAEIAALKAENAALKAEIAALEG

4H2698-AA = biological target: T13, 4H2698-AA; assay: two-hybrid library CCmax; conditions: mean of both orientations
T13 chain: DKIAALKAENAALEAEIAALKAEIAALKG

4H485-AA = biological target: T14, 4H485-AA; assay: two-hybrid library CCmax
T14 chain: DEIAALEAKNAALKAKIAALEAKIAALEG

4H3165-AA = biological target: T15, 4H3165-AA; assay: two-hybrid library CCmax; conditions: mean of both orientations
T15 chain: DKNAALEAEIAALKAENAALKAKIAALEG

4H930-AA = biological target: T16, 4H930-AA; assay: two-hybrid library CCmax; conditions: mean of both orientations
T16 chain: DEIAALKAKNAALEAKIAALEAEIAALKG

4H850-AA = biological target: T17, 4H850-AA; assay: two-hybrid library CCmax; conditions: mean of both orientations
T17 chain: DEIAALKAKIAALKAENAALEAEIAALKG

4H3120-AA = biological target: T18, 4H3120-AA; assay: two-hybrid library CCmax; conditions: mean of both orientations
T18 chain: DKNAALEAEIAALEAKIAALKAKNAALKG

4H2389-AA = biological target: T19, 4H2389-AA; assay: two-hybrid library CCmax
T19 chain: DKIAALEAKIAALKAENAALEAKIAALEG

4H3009-AA = biological target: T20, 4H3009-AA; assay: two-hybrid library CCmax; conditions: mean of both orientations
T20 chain: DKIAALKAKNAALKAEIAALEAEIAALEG

4H3395-AA = biological target: T21, 4H3395-AA; assay: two-hybrid library CCmax; conditions: mean of both orientations
T21 chain: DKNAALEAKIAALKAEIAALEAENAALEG

4H2438-AA = biological target: T22, 4H2438-AA; assay: two-hybrid library CCmax; conditions: mean of both orientations
T22 chain: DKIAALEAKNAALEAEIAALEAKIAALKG

4H3753-AA = biological target: T23, 4H3753-AA; assay: two-hybrid library CCmax; conditions: mean of both orientations
T23 chain: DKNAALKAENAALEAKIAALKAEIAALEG

4H3130-AA = biological target: T24, 4H3130-AA; assay: two-hybrid library CCmax; conditions: mean of both orientations
T24 chain: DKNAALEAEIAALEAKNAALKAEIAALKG

4H458-AA = biological target: T25, 4H458-AA; assay: two-hybrid library CCmax; conditions: mean of both orientations
T25 chain: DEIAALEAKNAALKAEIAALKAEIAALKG

4H536-AA = biological target: T26, 4H536-AA; assay: two-hybrid library CCmax; conditions: mean of both orientations
T26 chain: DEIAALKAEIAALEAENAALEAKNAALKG

4H2725-AA = biological target: T27, 4H2725-AA; assay: two-hybrid library CCmax; conditions: mean of both orientations
T27 chain: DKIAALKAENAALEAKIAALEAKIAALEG

4H3590-AA = biological target: T28, 4H3590-AA; assay: two-hybrid library CCmax; conditions: mean of both orientations
T28 chain: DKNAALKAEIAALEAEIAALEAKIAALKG

4H3697-AA = biological target: T29, 4H3697-AA; assay: two-hybrid library CCmax; conditions: mean of both orientations
T29 chain: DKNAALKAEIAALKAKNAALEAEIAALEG

4H2473-AA = biological target: T30, 4H2473-AA; assay: two-hybrid library CCmax; conditions: mean of both orientations
T30 chain: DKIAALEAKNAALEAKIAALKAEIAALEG

4H570-AA = biological target: T31, 4H570-AA; assay: two-hybrid library CCmax; conditions: mean of both orientations
T31 chain: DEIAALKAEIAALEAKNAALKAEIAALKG

4H891-AA = biological target: T32, 4H891-AA; assay: two-hybrid library CCmax; conditions: mean of both orientations
T32 chain: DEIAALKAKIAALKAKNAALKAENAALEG

4H710-AA = biological target: T33, 4H710-AA; assay: two-hybrid library CCmax; conditions: mean of both orientations
T33 chain: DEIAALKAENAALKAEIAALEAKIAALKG

4H963-AA = biological target: T34, 4H963-AA; assay: two-hybrid library CCmax; conditions: mean of both orientations
T34 chain: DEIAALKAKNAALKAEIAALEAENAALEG

4H688-AA = biological target: T35, 4H688-AA; assay: two-hybrid library CCmax
T35 chain: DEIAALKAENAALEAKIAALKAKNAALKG

4H390-AA = biological target: T36, 4H390-AA; assay: two-hybrid library CCmax; conditions: mean of both orientations
T36 chain: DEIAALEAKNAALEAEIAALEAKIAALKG

4H3940-AA = biological target: T37, 4H3940-AA; assay: two-hybrid library CCmax; conditions: mean of both orientations
T37 chain: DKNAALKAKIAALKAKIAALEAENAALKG

4H3409-AA = biological target: T38, 4H3409-AA; assay: two-hybrid library CCmax
T38 chain: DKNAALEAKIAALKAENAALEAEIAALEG

4H775-AA = biological target: T39, 4H775-AA; assay: two-hybrid library CCmax; conditions: mean of both orientations
T39 chain: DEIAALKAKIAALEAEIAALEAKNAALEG

4H87-AA = biological target: T40, 4H87-AA; assay: two-hybrid library CCmax; conditions: mean of both orientations
T40 chain: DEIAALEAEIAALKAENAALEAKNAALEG

4H510-AA = biological target: T41, 4H510-AA; assay: two-hybrid library CCmax; conditions: mean of both orientations
T41 chain: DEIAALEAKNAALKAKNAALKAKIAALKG

4H816-AA = biological target: T42, 4H816-AA; assay: two-hybrid library CCmax; conditions: mean of both orientations
T42 chain: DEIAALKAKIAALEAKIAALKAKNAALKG

4H3625-AA = biological target: T43, 4H3625-AA; assay: two-hybrid library CCmax; conditions: mean of both orientations
T43 chain: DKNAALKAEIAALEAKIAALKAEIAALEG

4H906-bH = biological target: T44, 4H906-bH; assay: two-hybrid library CCNG1
T44 chain: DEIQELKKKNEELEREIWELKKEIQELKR

4H591-bH = biological target: T45, 4H591-bH; assay: two-hybrid library CCNG1
T45 chain: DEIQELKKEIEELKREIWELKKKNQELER

4H626-bH = biological target: T46, 4H626-bH; assay: two-hybrid library CCNG1
T46 chain: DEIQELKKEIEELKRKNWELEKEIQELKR

DKIAALEAKIAALKAENAALEAKIAALEG [4H2389-AA]
interaction score (4H745-AA): -1.25 | interaction score (4H3410-AA): -1.2 | interaction score (4H629-AA): -0.106 | interaction score (4H3016-AA): 0.227 | interaction score (4H2865-AA): 1.02 | interaction score (4H310-AA): 1.8 | interaction score (4H3381-AA): -0.842 | interaction score (4H3865-AA): -0.601 | interaction score (4H797-AA): 1.3 | interaction score (4H909-AA): -1.35 | interaction score (4H94-AA): 1.99 | interaction score (4H2649-AA): 1.07 | interaction score (4H2698-AA): -0.843 | interaction score (4H485-AA): 0.153 | interaction score (4H3165-AA): 0.858 | interaction score (4H930-AA): -0.305 | interaction score (4H850-AA): -0.804 | interaction score (4H3120-AA): -0.79 | interaction score (4H2389-AA): 2.02 | interaction score (4H3009-AA): 1.53 | interaction score (4H3395-AA): -1.54 | interaction score (4H2438-AA): -0.27 | interaction score (4H3753-AA): -1.26 | interaction score (4H3130-AA): 1.81 | interaction score (4H458-AA): -0.364 | interaction score (4H536-AA): -0.282 | interaction score (4H2725-AA): -0.942 | interaction score (4H3590-AA): -0.0915 | interaction score (4H3697-AA): -1.74 | interaction score (4H2473-AA): -1.3 | interaction score (4H570-AA): 1.65 | interaction score (4H891-AA): -0.959 | interaction score (4H710-AA): 0.392

DEIAALKAENAALEAKIAALKAKNAALKG [4H688-AA]
interaction score (4H963-AA): 1.46 | interaction score (4H688-AA): -1.23

DKNAALEAKIAALKAENAALEAEIAALEG [4H3409-AA]
interaction score (4H390-AA): -1.28 | interaction score (4H3940-AA): -1.12 | interaction score (4H3409-AA): -1.02 | interaction score (4H775-AA): -1.25 | interaction score (4H87-AA): -1.93 | interaction score (4H510-AA): 0.697 | interaction score (4H816-AA): -1.37 | interaction score (4H3625-AA): -0.625

DEIQELKKEIEELKREIWELKKKNQELER [4H591-bH]
interaction score (4H906-bH): -0.784 | interaction score (4H591-bH): 1.58 | interaction score (4H626-bH): -0.53
